Results from paper PMC8880691, “Impact of Linker Modification and PEGylation of Vancomycin Conjugates on Structure-Activity Relationships and Pharmacokinetics” (Pharmaceuticals, 2022).
Where a name gives a salt, the structure may show the parent alone.

Legend:
[1] = tested on: erythrocytes; assay type: cell-based, human
Experimental: To determine the toxicity to red blood cells and thus confirm the selectivity to bacteria, a hemoglobin release assay was carried out with VAN1, VAN2 and VAN3, as well as the PEGylated conjugate, VAN:PEG1.
To exclude lytic activity and to evaluate the toxicological potential of the conjugates, hemolysis studies were performed as previously described. Briefly, fresh heparinized blood of four male, fasted volunteers was taken, and erythrocytes were purified by centrifugation of the blood at 2500 rpm for 10 min. The supernatant was removed, and the resulting pellet was washed with PBS at least three times, until the supernatant remained clear. The conjugates were serially diluted from stock solutions (in phosphate-buffered saline) in a 96-well plate at concentrations ranging from 120 µg/mL to 0.23 µg/mL (VAN1) or 16 µg/mL to 0.03 µg/mL (VAN2, VAN3 and VAN:PEG1), resulting in a final volume of 50 µL. A solution of Triton®X-100 in PBS was used as positive control. Finally, 50 µL of the washed erythrocytes was loaded into each well. After incubation for 30 min at 37 °C, 75 µL PBS was added to each well, and the plates were centrifuged for 5 min at 4000 rpm. A total of 50 µL of the supernatants was then transferred into a new polystyrene, flat-bottom 96-well plate, and the absorbances were measured at 554 nm using a Tecan microplate reader. Hemolysis was calculated as follows: Hemolysis %=100×Asubstance−Aneg. control/ATriton−Aneg. control
The negative control was erythrocytes, treated as described but using only PBS.

[2] = Biodistribution study with excised organs, 125I-labeled compounds; assay type: in vivo, female Wistar rats; conditions: rat
Experimental: (§1) Molecular imaging and biodistribution studies were performed for VAN1 and VAN2, as well as for VAN:PEG1 and VAN:PEG2, using female Wistar rats.
To further compare the two modification strategies, the biodistribution profiles of VAN1, VAN2 and vancomycin were compared using excised organs. This study confirms significant liver accumulation in most cases.
(§2) For biodistribution and pharmacokinetic studies, compounds were radiolabeled with ^125I. The previously described method for the insertion of an additional D-tyrosine to the N-terminus of the peptide moiety was used to enable […] substitution for VAN1 and VAN2 [11]. For the PEGylated derivatives, VAN:PEG1 and VAN:PEG2, tyrosine-modified FU002y was used to synthesize the intermediate. Radiolabeling was performed using the chloramine T method as previously described. Thus, a 1 mM stock solution of the respective compound in phosphate buffer/dimethyl sulfoxide was prepared. The required amount of the radionuclide (^125I) was added to a mixture of 25 μL of the stock solution and 25 μL of phosphate buffer (0.25 mM; pH = 7.5). Purification of the labeled compounds was performed by semi-preparative HPLC. Analysis was conducted by radio HPLC (Agilent 1100 series) using a Chromolith® Performance RP-18e, 100 × 3 mm column, applying a linear gradient of 0.1% TFA in water (eluent A) to 0.1% TFA in acetonitrile (eluent B) within 5 min (flow rate, 2 mL/min; UV absorbance, λ = 214 nm; γ-detection). Animals were anaesthetized by isoflurane inhalation, and appropriate amounts of the radiolabeled conjugate dissolved in 100 µL 0.9% NaCl solution were injected into the tail vein. Cumulative scintigraphic images were taken after 10 min and 1, 2, 3, 5 and 24 h. For the biodistribution studies, animals were sacrificed at the indicated points in time. The activity of the weighed organs was measured in comparison with standards. Tissue-associated activity was related to the total injected dose (ID) and expressed as a percentage of the total injected dose per gram of tissue (%ID/g). The data were calculated afterwards to obtain the respective organ/organ or organ/blood ratios.

[3] = Molecular imaging (scintigraphy) of 125I-labeled compounds; assay type: in vivo, female Wistar rats; conditions: rat
Experimental: as §1, §2

[4] = tested on: B. subtilis DSM10; experiment: microbe, parasite or virus in culture; assay type: cell-based
Experimental: (§3) The conjugates were tested in microdilution assays according to CLSI (Clinical and Laboratory Standards Institute) and EUCAST (European Committee on Antimicrobial Susceptibility Testing) guidelines on both vancomycin-sensitive and-resistant Gram-positive bacterial strains.
(§4) Antimicrobial activity assays were performed by microdilution and conducted in accordance with CLSI and EUCAST guidelines. Serial dilutions in MHB II (cation adjusted) were performed on 96-well plates using water-stock solutions of the compounds at different concentrations. Overnight cultures of bacterial strains were used to obtain bacteria in the logarithmic growth phase. Bacteria were adjusted to a McFarland corresponding to 1 × 10^8 cfu/mL. After a 1:100 dilution, the culture broth was loaded onto the 96-well polypropylene plates, resulting in a final bacterial concentration of 5 × 10^5 cfu/mL. Plates were then incubated at 37 ± 1 °C for 18–24 h. The MICs were assessed as the lowest concentration without visible growth.
Table S1. Minimum inhibitory concentration against B. subtilis DSM10.
activity. Shown is the median of at least three independent measurements (range is shown in brackets).
Compound Minimum Inhibitory Concentration
against B. subtilis DSM10 [mg/L] […]
[mg/L] [% hemolysis] [% hemolysis] [% hemolysis] […]

[5] = tested on: vanC vancomycin-resistant enterococci; experiment: Microdilution assay on vancomycin-resistant strains of the vanC type; assay type: cell-based; conditions: resistant strains of the vanC type (low-level resistant)
Experimental: as §3, §4

[6] = tested on: vanB vancomycin-resistant enterococci; experiment: Microdilution assay on vancomycin-resistant strains of the vanB type; assay type: cell-based
Experimental: as §3, §4

[7] = 10 min post injection, tail vein, from %ID/g of excised organs

SMILES	hemolytic activity [1]	Ratio Kidney/Blood ([2]; in vivo)	Ratio Liver/Blood ([2]; in vivo)	Ratio Liver/Kidney ([2]; in vivo)	pharmacokinetic behavior by molecular imaging ([3]; in vivo)	Minimum Inhibitory Concentration against B. subtilis DSM10 [4]	overcoming the molar-resistance breakpoint (EUCAST), vanC type [5]	overcoming the molar-resistance breakpoint (EUCAST), vanB type [6]	Ratio Kidney/Blood [2, 7]	Ratio Liver/Blood [2, 7]	Ratio Liver/Kidney [2, 7]	pharmacokinetic behavior by molecular imaging ([3]; 125I-labeled, tail vein injection, scintigraphic images 10 min to 24 h)	MIC ([4]; Bacillus subtilis, DSM10, read-out: Minimum Inhibitory Concentration against B. subtilis DSM10)
CC(C)C[C@H](C(=O)N[C@H]1C(=O)N[C@@H](CC(N)=O)C(=O)N[C@H]2C(=O)N[C@H]3C(=O)N[C@H](C(=O)N[C@H](C(=O)O)c4cc(O)cc(O)c4-c4cc3ccc4O)[C@H](O)c3ccc(c(Cl)c3)Oc3cc2cc(c3O[C@@H]2O[C@H](CO)[C@@H](O)[C@H](O)[C@H]2O[C@H]2C[C@](C)(N)[C@H](O)[C@H](C)O2)Oc2ccc(cc2Cl)[C@H]1O)N(C)C(=O)CCCCCCCCCCN1C(=O)CC(SC[C@H](NC(=O)[C@H](CCCNC(=N)N)NC(=O)[C@H](CCCNC(=N)N)NC(=O)[C@H](CCCNC(=N)N)NC(=O)[C@H](CCCNC(=N)N)NC(=O)[C@H](CCCNC(=N)N)NC(=O)[C@@H](N)CCCNC(=N)N)C(N)=O)C1=O (stereo partly drawn) [VAN1]	None of the compounds showed significant hemolytic activity	2.22	10.13	4.47	accumulates quickly in the liver	1 (0.5–1) mg/L							
CC(C)C[C@H](C(=O)N[C@H]1C(=O)N[C@@H](CC(N)=O)C(=O)N[C@H]2C(=O)N[C@H]3C(=O)N[C@H](C(=O)N[C@H](C(=O)O)c4cc(O)cc(O)c4-c4cc3ccc4O)[C@H](O)c3ccc(c(Cl)c3)Oc3cc2cc(c3O[C@@H]2O[C@H](CO)[C@@H](O)[C@H](O)[C@H]2O[C@H]2C[C@](C)(N)[C@H](O)[C@H](C)O2)Oc2ccc(cc2Cl)[C@H]1O)N(C)C(=O)CCOCCOCCOCCOCCOCCOCCOCCOCCOCCOCCOCCOCCNC(=O)CCN1C(=O)CC(SC[C@H](NC(=O)[C@H](CCCNC(=N)N)NC(=O)[C@H](CCCNC(=N)N)NC(=O)[C@H](CCCNC(=N)N)NC(=O)[C@H](CCCNC(=N)N)NC(=O)[C@H](CCCNC(=N)N)NC(=O)[C@@H](N)CCCNC(=N)N)C(N)=O)C1=O (stereo partly drawn) [VAN2]	None of the compounds showed significant hemolytic activity	10.09	9.25	0.92	rapid liver accumulation can still be observed, in addition to renal elimination	2 (1–4) mg/L	able to overcome the molar-resistance breakpoint	able to overcome the molar-resistance breakpoint					
CC(C)C[C@H](C(=O)N[C@H]1C(=O)N[C@@H](CC(N)=O)C(=O)N[C@H]2C(=O)N[C@H]3C(=O)N[C@H](C(=O)N[C@H](C(=O)O)c4cc(O)cc(O)c4-c4cc3ccc4O)[C@H](O)c3ccc(c(Cl)c3)Oc3cc2cc(c3O[C@@H]2O[C@H](CO)[C@@H](O)[C@H](O)[C@H]2O[C@H]2C[C@](C)(N)[C@H](O)[C@H](C)O2)Oc2ccc(cc2Cl)[C@H]1O)N(C)C(=O)CN1C(=O)CC(SC[C@H](NC(=O)[C@H](CCCNC(=N)N)NC(=O)[C@H](CCCNC(=N)N)NC(=O)[C@H](CCCNC(=N)N)NC(=O)[C@H](CCCNC(=N)N)NC(=O)[C@H](CCCNC(=N)N)NC(=O)[C@@H](N)CCCNC(=N)N)C(N)=O)C1=O (stereo partly drawn) [VAN3]	None of the compounds showed significant hemolytic activity					< 0.125 mg/L							
CN[C@H](CC(C)C)C(=O)N[C@H]1C(=O)N[C@@H](CC(N)=O)C(=O)N[C@H]2C(=O)N[C@H]3C(=O)N[C@H](C(=O)N[C@H](C(=O)O)c4cc(O)cc(O)c4-c4cc3ccc4O)[C@H](O)c3ccc(c(Cl)c3)Oc3cc2cc(c3O[C@@H]2O[C@H](CO)[C@@H](O)[C@H](O)[C@H]2O[C@H]2C[C@](C)(N)[C@H](O)[C@H](C)O2)Oc2ccc(cc2Cl)[C@H]1O [Vancomycin, vancomycin hydrochloride]									2.16	0.36	0.17	fast renal elimination	0.25 µg/mL
